Data on one substance can be found in paper PMC6739210.

The target in assay [1] is Mortalin/GRP-75/mt-hsp70 (human (endogenous in MCF-7, MDA-MB-231 and K562)) (UniProt P38646).
Assay [2] has the same target. This is another data set of the same source.

UniProt P38646, sequence (P38646 47-679): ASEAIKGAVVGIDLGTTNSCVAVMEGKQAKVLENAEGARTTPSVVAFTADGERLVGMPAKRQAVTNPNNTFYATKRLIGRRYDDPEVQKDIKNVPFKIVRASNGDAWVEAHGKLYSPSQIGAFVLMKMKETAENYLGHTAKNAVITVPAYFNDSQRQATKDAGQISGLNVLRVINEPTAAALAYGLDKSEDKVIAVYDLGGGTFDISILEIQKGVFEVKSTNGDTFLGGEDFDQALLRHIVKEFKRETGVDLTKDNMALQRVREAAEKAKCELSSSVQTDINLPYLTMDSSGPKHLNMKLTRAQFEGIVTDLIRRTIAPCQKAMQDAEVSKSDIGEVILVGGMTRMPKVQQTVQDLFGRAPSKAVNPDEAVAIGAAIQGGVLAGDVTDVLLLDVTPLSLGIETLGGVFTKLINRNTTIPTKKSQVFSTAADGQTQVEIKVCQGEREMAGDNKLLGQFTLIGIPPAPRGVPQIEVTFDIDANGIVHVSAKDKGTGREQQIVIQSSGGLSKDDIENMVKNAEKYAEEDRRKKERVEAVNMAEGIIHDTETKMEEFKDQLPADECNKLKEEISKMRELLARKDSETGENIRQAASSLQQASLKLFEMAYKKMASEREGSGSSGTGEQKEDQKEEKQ

Turning to SMRwt-CPP peptide, in assay [1], the complement-mediated cytotoxicity (trypan blue), percent cell death of K562 cells treated with 1120 nM peptide, anti-CXCR4 antibody, minus or plus normal human serum is 23%; the complement-mediated cytotoxicity (trypan blue), percent cell death of MCF-7 cells treated with 300 nM peptide, anti-CXCR4 antibody, minus or plus normal human serum turned out to be 29%; the complement-mediated cytotoxicity (trypan blue), percent cell death of MDA-MB-231 cells treated with 540 nM peptide, anti-CXCR4 antibody, minus or plus normal human serum is 9%. In assay [2], this substance displayed a complement C9 level in extracellular vesicles of K562 cells after peptide and NHS, Western blot, compared to the NHS-treated controls of 24.3%; a complement C9 level in extracellular vesicles of MCF-7 cells after peptide and NHS, Western blot, compared to the NHS-treated controls of 37.5%; a complement C9 level in extracellular vesicles of MDA-MB-231 cells after peptide and NHS, Western blot, compared to the NHS-treated controls of 56.3%; a mortalin level in extracellular vesicles of K562 cells after peptide and NHS, Western blot, compared to the NHS-treated controls of 34.4%. Further, in assay [2], the mortalin level in extracellular vesicles of MCF-7 cells after peptide and NHS, Western blot, compared to the NHS-treated controls came to 48.4%; the mortalin level in extracellular vesicles of MDA-MB-231 cells after peptide and NHS, Western blot, compared to the NHS-treated controls was found to be 27.5%.
